Assay results: PMC4856307, “A Hidden Transhydrogen Activity of a FMN-Bound Diaphorase under Anaerobic Conditions” (PLoS ONE, 2016)

Experiments:
Test in all cases: purified protein
Format in all cases: biochemical, Geobacillus stearothermophilus
purified protein [1] = substrate: NC(=O)C1=CN([C@@H]2O[C@H](COP(=O)(O)OP(=O)(O)OC[C@H]3O[C@@H](n4cnc5c(N)ncnc54)[C@H](O)[C@@H]3O)[C@@H](O)[C@H]2O)C=CC1; settings: acceptor thio-NAD+; anaerobic (argon); 1x TBS pH 7.4, room temperature; pH 7.4
purified protein [2] = substrate: NC(=O)C1=CN([C@@H]2O[C@H](COP(=O)(O)OP(=O)(O)OC[C@H]3O[C@@H](n4cnc5c(N)ncnc54)[C@H](OP(=O)(O)O)[C@@H]3O)[C@@H](O)[C@H]2O)C=CC1; settings: acceptor thio-NAD+; anaerobic (argon); 1x TBS pH 7.4, room temperature; pH 7.4
purified protein [3] = substrate: NC(=S)c1ccc[n+]([C@@H]2O[C@H](COP(=O)(O)OP(=O)(O)OC[C@H]3O[C@@H](n4cnc5c(N)ncnc54)[C@H](OP(=O)(O)O)[C@@H]3O)[C@@H](O)[C@H]2O)c1; settings: hydride donor NAD(P)H; anaerobic (argon)
purified protein [4] = substrate: NC(=S)c1ccc[n+]([C@@H]2O[C@H](COP(=O)([O-])OP(=O)(O)OC[C@H]3O[C@@H](n4cnc5c(N)ncnc54)[C@H](O)[C@@H]3O)[C@@H](O)[C@H]2O)c1; settings: hydride donor NAD(P)H; anaerobic (argon)

B1: FMN-bound diaphorase (FMN-DI, DI, GsDI) (Geobacillus stearothermophilus) (protein)
chain: MTKVLYITAHPHDDTQSYSMAVGKAFIETYKQVHPDHEVIHLDLYKEYIPEIDVDVFSGWGKLRSGKSFEELSDEEKAKVGRMNELCEQFISADKYVFVTPMWNFSFPPVLKAYIDAVAVAGKTFKYTEQGPVGLLTDKKALHIQARGGFYSEGPAAEMEMGHRYLSVIMQFFGVPSFEGLFVEGHAAMPEKAEEIKANAIARAKDLAHTF
notes: full length from 636-bp DNA fragment, E. coli BL21 Star (DE3), plasmid pET20b-Gsdi, Ni-resin purified (C-terminal His tag implied by reverse primer)
Km (purified protein [1]): 24 ± 3 µM
kcat (purified protein [1]): 1.64 ± 0.05 s⁻¹
Km (purified protein [2]): 699 ± 49 µM
kcat (purified protein [2]): 1.93 ± 0.06 s⁻¹
Km (purified protein [3]): 4813 µM
kcat (purified protein [3]): ~0.26 s⁻¹
Km (purified protein [4]): 917 µM
kcat (purified protein [4]): ~2.4 s⁻¹
